For two substances, plucking force results are on record in PMC5515574.

For assay [1], the target named is mutant T238V yeast αβ-tubulin (T238V in Tub2p, β-tubulin) (yeast (S. cerevisiae)) (UniProt P09733). Put plainly: laser trap plucking force assay; bead tethered by a single anti-His antibody to the His6 tag of β-tubulin at the growing end of a coverslip-anchored microtubule; force ramp 0.25 pN s^-1 until detachment; only detachments followed at once by disassembly counted; removal of tubulin dimers from the microtubule end.

For assay [2], the target named is wild-type yeast αβ-tubulin with a His6 tag fused to the C-terminus of β-tubulin (yeast (S. cerevisiae)) (UniProt P09733). The assay is described as above.

In assay [1], “mutant T238V yeast αβ-tubulin (T238V in Tub2p, β-tubulin) (from UniProt P09733 1-447; P02557 1-457) (complex)” displayed a plucking force of 19 pN.

The substance “wild-type yeast αβ-tubulin with a His6 tag fused to the C-terminus of β-tubulin (from UniProt P09733 1-447; P02557 1-457) (complex)” gave a plucking force in assay [2] of 8.3 pN.
